Experimental findings from patent publication US20230201364A1 (BRIGHT PEAK THERAPEUTICS, published 2023) are described below.

Test [1] has as its target recombinant biotinylated PD1/CD279 protein (AcroBiosystems PD1-H82E4) (UniProt Q15116 25-167, biotinylated). As to the kind of experiment: ELISA; antibody coated on plate, biotinylated antigen titrated, streptavidin-HRP. As to the method: The interaction of the unmodified and of conjugated antibodies their antigens were measured by ELISA assay.
For these PD-1 ELISAs, Corning high-binding half-area plates (Fisher Scientific, Reinach, Switzerland) were coated overnight at 4° C. with 25 μl of unmodified and of conjugated anti-PD1 antibodies at 5 μg/ml in PBS. Plates were then washed four times with 100 μl of PBS-0.02% Tween20. Plates surfaces were blocked with 25 μl of PBS-0.02% Tween20-1% BSA at 37° C. during 1 h. Plates were then washed four times with 100 μl of PBS-0.02% Tween20. […] Fifty microliters of TMB substrate reagent (#CL07, Merck, Buchs, Switzerland) were added to each well and incubated at 37° C. during 5 min. After 5 min at 37° C., Horseradish peroxidase reaction was stopped by adding 50 μl/well of 0.5M H₂SO₄ stop solution. ELISA signal was then measured at 450 nm on an EnSpire plate reader from Perkin Elmer (Schwerzenbach, Switzerland). ELISAs for other antibody/antigen pairs were performed using analogous methods.
Background: In an ELISA, binding on a coated surface is turned into a signal by an enzyme label.

In test [2] the target is T1, recombinant biotinylated human Fc gamma receptor I (FcγRI/CD64) (human, UniProt P12314 16-288, limits assumed, biotinylated).
T1 construct: also called FcgRI
The test is described as follows: AlphaLISA competition: test antibody titrated against biotinylated human FcγRI; competitor: human IgG Fc on acceptor beads; signal normalized to %; panel 'FcγR1/CD64 Binding Assay'. As to the method: (§1) The interaction of the unmodified and of conjugated antibodies with human Fc gamma receptors I (FcγRI/CD64), with human Fc gamma receptors II (FcγRIIa/CD32), and with low affinity human Fc gamma receptors III FcγR3a/CD16 V158 were measured using the AlphaLISA® Human FcγR1/CD64 (AL3081C), FcγRIIa/CD32a 167H (AL3086C), and FcγRIII/CD16 176P/F158 (AL3471HV) binding Kits respectively (Perkin Elmer, Schwerzenbach, Switzerland).
(§2) After 90 min at 23° C. in the dark, AlphaLISA® signal was measured on an EnSpire plate reader (Excitation at 680 nm, Emission at 615 nm) from Perkin Elmer (Schwerzenbach, Switzerland).
On the technique in general: In Alpha technology, singlet oxygen from a donor bead excites a nearby acceptor bead.

In test [3] the target is T2, recombinant biotinylated human Fc gamma receptor IIIa (FcγRIIIa/CD16) (human, UniProt P08637 17-208, limits assumed, biotinylated).
T2 construct: Allotype given inconsistently (V158 against 176P/F158); also called FcgRIIIa; FcγR3a
The test is described as follows: AlphaLISA competition: test antibody titrated against biotinylated human FcγRIIIa; competitor: human IgG Fc on acceptor beads; signal normalized to %; panel 'FcγR3a/CD16 Binding Assay'. As to the method: as §1, §2

Test [4] has as its target T3, recombinant biotinylated human Fc gamma receptor IIa (FcγRIIa/CD32a 167H) (human, UniProt P12318 36-218, limits assumed, biotinylated).
T3 construct: also called FcgRIIa
T3 sequence (looked up): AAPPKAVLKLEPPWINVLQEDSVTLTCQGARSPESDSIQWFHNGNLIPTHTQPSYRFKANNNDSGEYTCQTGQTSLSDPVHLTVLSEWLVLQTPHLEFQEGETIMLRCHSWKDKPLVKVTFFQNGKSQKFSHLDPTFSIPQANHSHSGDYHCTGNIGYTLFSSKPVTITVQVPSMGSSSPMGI
The test is described as follows: AlphaLISA competition: test antibody titrated against biotinylated human FcγRIIa; competitor: human IgG Fc on acceptor beads; signal normalized to %; panel 'FcγR2a/CD32a Binding Assay'. As to the method: as §1, §2

Test [5] deals with T4, Fc gamma receptor IIb (FcgRIIb, CD32b) (human, UniProt P31994 46-217, limits assumed).
T4 construct: the kit is not described; also called FcRIIb
T4 sequence (looked up): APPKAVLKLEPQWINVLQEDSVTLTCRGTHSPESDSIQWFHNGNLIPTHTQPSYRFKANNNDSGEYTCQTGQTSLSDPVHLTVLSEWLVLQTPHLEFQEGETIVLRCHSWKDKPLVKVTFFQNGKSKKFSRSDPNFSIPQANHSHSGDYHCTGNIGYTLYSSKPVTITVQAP
As to the kind of experiment: AlphaLISA competition or analogous assay for FcγRIIb (not described).

In a further test the target is T5, CD20 (human, UniProt P11836 1-297, limits assumed).
T5 construct: The CD20 reagent of the ELISA is not described (analogous methods); also called human CD20
T5 sequence: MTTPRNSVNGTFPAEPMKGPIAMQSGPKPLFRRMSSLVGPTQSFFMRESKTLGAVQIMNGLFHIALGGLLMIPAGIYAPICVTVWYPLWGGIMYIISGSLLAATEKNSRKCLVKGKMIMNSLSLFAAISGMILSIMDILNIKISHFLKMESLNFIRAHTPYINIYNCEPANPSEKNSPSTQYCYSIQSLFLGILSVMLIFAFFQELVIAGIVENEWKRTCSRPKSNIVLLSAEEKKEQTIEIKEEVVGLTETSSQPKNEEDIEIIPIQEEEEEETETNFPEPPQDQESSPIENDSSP
As to the kind of experiment: ELISA by a method analogous to the PD-1 ELISA; antigen reagent not described.

Test [6] addresses T1, recombinant biotinylated human Fc gamma …. The test is described as follows: AlphaLISA competition; test molecule titrated against human IgG Fc acceptor beads for biotinylated FcγRI. As to the method:
as §1, §2

Test [7] has as its target T3, recombinant biotinylated human Fc gamma …. The test is described as follows: AlphaLISA competition; test molecule titrated against human IgG Fc acceptor beads for biotinylated FcγRIIa. As to the method: as §1, §2
For test [8], the target named is T2, recombinant biotinylated human Fc gamma …. As to the kind of experiment: AlphaLISA competition; test molecule titrated against human IgG Fc acceptor beads for biotinylated FcγRIIIa. As to the method:
as §1, §2

For test [9], the target named is T6, recombinant biotinylated human neonatal Fc receptor (FcRn) (human, UniProt P55899 24-297; P61769 21-119, limits assumed, biotinylated).
T6 construct: also called human FcRn
The test is described as follows: AlphaLISA competition at pH 6; test molecule titrated against human IgG acceptor beads for biotinylated human FcRn. As to the method: (§3) The interaction of the unmodified and of conjugated anti-PD1 antibodies with the human neonatal Fc receptor (FcRn) at pH 6 was measured using the AlphaLISA Human FcRn Binding Kit (AL3095C) from Perkin Elmer (Schwerzenbach, Switzerland).
(§4) After 90 min at 23° C. in the dark, AlphaLISA signal was measured on an EnSpire plate reader (Excitation at 680 nm, Emission at 615 nm) from Perkin Elmer (Schwerzenbach, Switzerland).

Test [10] addresses T6, recombinant biotinylated human neonatal …. The test is described as follows: AlphaLISA competition at pH 6: test antibody titrated against biotinylated human FcRn on donor beads; competitor: human IgG on acceptor beads. As to the method: as §3, §4
Test [11] deals with T1, recombinant biotinylated human Fc gamma …. As to the kind of experiment: AlphaLISA competition: test antibody titrated against biotinylated human FcγRI on donor beads; competitor: human IgG Fc on acceptor beads; signal normalized to %. As to the method:
as §1, §2

B1: CMP-105 (LZM-009) (antibody, V domains shown)
VH: QVQLVQSGAEVKKPGASVKVSCKASGYTFTSYYMYWVRQAPGQGLEWMGGVNPSNGGTNFNEKFKSRVTITADKSTSTAYMELSSLRSEDTAVYYCARRDYRYDMGFDYWGQGTTVTVSS
VL: EIVLTQSPATLSLSPGERATISCRASKGVSTSGYSYLHWYQQKPGQAPRLLIYLASYLESGVPARFSGSGSGTDFTLTISSLEPEDFATYYCQHSRELPLTFGTGTKVEIK
notes: Unconjugated parent anti-PD-1 antibody (DAR 0); also called Livzon PD1 AB
In general, Kd refers to the concentration at which binding is half-saturated. As to B1, the Kd in test [1] worked out at 0.035 nM.

B2: CMP-041 (LZM-009 conjugated to CMP-095 (IL-7), DAR 1, K248) (antibody)
VH: B1 VH
VL: B1 VL
chain: DCDIEGKDGKQYESVLXVSIDQLLDSXKEIGSNCLXNEFNFFKRHICDANKEGXFLFRAARKLRQFLKXNSTGDFXLHLLKVSEGTTILLNCTGQVKGRKPAALGEAQPTKSLXENKSLKEQKKLNDLCFLKRLLQEIKTCWNKILXGTKEH
modifications: not fully specified; Nle at 17, 27, 54, 69, 147 and Hse at 36, 76, 114 (as in SEQ ID NO: 187); N-terminal amine carries glutaryl-PEG9 whose azide end is joined to the DBCO linker of the antibody; the heavy chain carries a chemical linker to CMP-095 on Lys K248 (Eu numbering) of the Fc; DAR 1
notes: also called Livzon PD1:IL7wt
Turning to B2, in test [1], the Kd came to 0.035 nM.

B3: CMP-102 (LZM-009 conjugated to CMP-003, DAR 1, K288) (antibody)
VH: B1 VH
VL: B1 VL
chain: APTSSSTKKTQLQLEHLLLDLQXILNGINNYKNPKLTRXLXYKFYXPKKATELKHLQCLEEELKPLEEVLXLAQSKNFHLRPRDLISNINVIVLELKGSETTFXCEYADETATIVEFLNRWITFSQSIISTLT
modifications: not fully specified; Nle at 23, 39, 46 and Hse at 41, 71, 104 (as in SEQ ID NO: 3); ~0.5 kDa PEG on Y45; 0.5 kDa PEG on F42Y whose azide end is joined to the DBCO linker of the antibody; the heavy chain carries a chemical linker to CMP-003 on Lys K288 (Eu numbering) of the Fc; DAR 1
In the case of B3, in test [1], the Kd stood at 0.027 nM.

B4: CMP-016 (LZM-009 conjugated to CMP-003, DAR 1, K248) (antibody)
VH: B1 VH
VL: B1 VL
chain: B3 chain
modifications: not fully specified; Nle at 23, 39, 46 and Hse at 41, 71, 104 (as in SEQ ID NO: 3); ~0.5 kDa PEG on Y45; 0.5 kDa PEG on F42Y whose azide end is joined to the DBCO linker of the antibody; the heavy chain carries a chemical linker to CMP-003 on Lys K248 (Eu numbering) of the Fc; DAR 1
Turning to B4, the Kd in test [1] amounted to 0.037 nM.

B5: CMP-028 (LZM-009 conjugated to CMP-003, DAR 1.9, K288) (antibody)
VH: B1 VH
VL: B1 VL
chain: B3 chain
modifications: not fully specified; Nle at 23, 39, 46 and Hse at 41, 71, 104 (as in SEQ ID NO: 3); ~0.5 kDa PEG on Y45; 0.5 kDa PEG on F42Y whose azide end is joined to the DBCO linker of the antibody; the heavy chain carries a chemical linker to CMP-003 on Lys K288 (Eu numbering) of the Fc; DAR 1.9
As to B5, in test [1], the equilibrium dissociation constant (Kd) amounted to 0.041 nM.

B6: CMP-033 (Durvalumab) (antibody, human IgG1, kappa)
heavy chain: EVQLVESGGGLVQPGGSLRLSCAASGFTFSRYWMSWVRQAPGKGLEWVANIKQDGSEKYYVDSVKGRFTISRDNAKNSLYLQMNSLRAEDTAVYYCAREGGWFGELAFDYWGQGTLVTVSSASTKGPSVFPLAPSSKSTSGGTAALGCLVKDYFPEPVTVSWNSGALTSGVHTFPAVLQSSGLYSLSSVVTVPSSSLGTQTYICNVNHKPSNTKVDKRVEPKSCDKTHTCPPCPAPEFEGGPSVFLFPPKPKDTLMISRTPEVTCVVVDVSHEDPEVKFNWYVDGVEVHNAKTKPREEQYNSTYRVVSVLTVLHQDWLNGKEYKCKVSNKALPASIEKTISKAKGQPREPQVYTLPPSREEMTKNQVSLTCLVKGFYPSDIAVEWESNGQPENNYKTTPPVLDSDGSFFLYSKLTVDKSRWQQGNVFSCSVMHEALHNHYTQKSLSLSPGK
light chain: EIVLTQSPGTLSLSPGERATLSCRASQRVSSSYLAWYQQKPGQAPRLLIYDASSRATGIPDRFSGSGSGTDFTLTISRLEPEDFAVYYCQQYGSLPWTFGQGTKVEIKRTVAAPSVFIFPPSDEQLKSGTASVVCLLNNFYPREAKVQWKVDNALQSGNSQESVTEQDSKDSTYSLSSTLTLSKADYEKHKVYACEVTHQGLSSPVTKSFNRGEC
notes: unconjugated parent anti-PD-L1 antibody; also called Imfinzi; MEDI-4736
For B6, the binding result in test [2] is “binds”. The figures for the “IC50 (read off the curve)” value in [3] and in [4] were roughly 500 nM and roughly 400 nM, respectively.

B7: CMP-032 (biosimilar Rituximab) (antibody, human IgG1, kappa)
heavy: not shown
light: QIVLSQSPAILSASPGEKVTMTCRASSSVSYIHWFQQKPGSSPKPWIYATSNLASGVPVRFSGSGSGTSYSLTISRVEAEDAATYYCQQWTSNPPTFGGGTKLEIKRTVAAPSVFIFPPSDEQLKSGTASVVCLLNNFYPREAKVQWKVDNALQSGNSQESVTEQDSKDSTYSLSSTLTLSKADYEKHKVYACEVTHQGLSSPVTKSFNRGEC
notes: Unconjugated parent anti-CD20 antibody (DAR 0); A biosimilar/generic rituximab was tested; also called generic rituximab
Take B7: the dissociation constant (Kd) was found to be 880 nM in test [5]; 0.076 nM with CD20; 0.233 nM in test [6]; 740 nM in test [7]; 133 nM in [8]; 4.03 nM in [9].

B8: CMP-004 (Pembrolizumab) (antibody, human IgG4 S228P, kappa)
heavy: not shown
light: EIVLTQSPATLSLSPGERATLSCRASKGVSTSGYSYLHWYQQKPGQAPRLLIYLASYLESGVPARFSGSGSGTDFTLTISSLEPEDFAVYYCQHSRDLPLTFGGGTKVEIKRTVAAPSVFIFPPSDEQLKSGTASVVCLLNNFYPREAKVQWKVDNALQSGNSQESVTEQDSKDSTYSLSSTLTLSKADYEKHKVYACEVTHQGLSSPVTKSFNRGEC
notes: Unconjugated parent anti-PD-1 antibody (DAR 0); also called Lambrolizumab
For B8, the Kd in [6] was 0.488 nM; in test [8] it was 289 nM; in test [9], 7.31 nM. Also, the “IC50 (read off the curve)” value is roughly 10 nM in [10] and roughly 0.5 nM in test [11].
